# From patent US7534761B1, “Charged peptide-amphiphile solutions and self-assembled peptide nanofiber networks formed therefrom” (North Western University, priority 2002, dated 2009)
# Square brackets hold non-standard residues; d marks the D form. Ends that are not written are not given here. * marks the point of attachment. Palmitoyl = CCCCCCCCCCCCCCCC(=O)*; pS = N[C@@H](COP(=O)(O)O)C(=O)O
# Columns and labels:
# [1] = Gelation / self assembly of peptide amphiphile solutions, TEM of bulk gels; type: physicochemical
# Description: Synthesis of peptide amphiphile, SEQ ID NO:1, was synthesized with standard Fmoc chemistry on an Applied Biosystems […] automated peptide synthesizer. The peptide was grown from the C terminus to N terminus with the sequence CCCCGGGSS(P)DS(P)D, SEQ ID NO:1, and the N terminus was capped with a 16 carbon fatty acid. The synthesis of the peptide amphiphile, SED ID NO:1, was verified by ESI mass spectroscopy indicating correct molecular weight. […] To confirm the formation of fibers, transmission electron microscopy (TEM) images of these bulk gels were taken and are shown in FIG. 3. Fibers on the order of 5-10 nm in diameter can be seen, as well as globular micelles ranging from 10-15 nm in diameter.
# [2] = test system: MC3T3-E1 mouse calvarial osteoblasts; test: Growth and differentiation of MC3T3-E1 osteoblasts on self assembled nanofibers coated on glass; type: cell-based
# Description: Cell culture preparation includes treating glass coverslips overnight in 100% ethanol. […] of SEQ ID NO:1, was spin-coated at 1500 r.p.m. for 30 seconds onto the treated glass cover slips. Samples were dried under vacuum to promote self-assembly on the glass surface. Samples were then immersed in 10% iodine for 15 minutes to cross-link the assembled PA nanofibers. Cross-linked samples were thoroughly, but gently rinsed by immersion in water 3×. Rinsed slides were dried by vacuum desiccation and placed in a 24-well tissue culture well plate. MC3T3-E1 mouse calvarial osteoblasts were plated at 10,000 cells/coverslip in 1 mL of MEM-a culture medium containing 10% fetal bovine serum, 1% penicillin/streptomycin, 30 mM β-glycerolphosphate, and […] ascorbic acid. The medium was exchanged every 3 days.
# [3] = Coassembly of negatively and positively charged peptide amphiphiles; type: physicochemical; conditions: 10 mg/mL, mixed with approximately 3 molar equivalents of SEQ ID NO:22
# Text: This example illustrates the self assembly of negatively charged peptide amphiphiles using positively charged peptide amphiphiles, coassembly, to induce nanofiber gel formation. […] Similar approaches may be applied using variations the charged molecules involved.
Substance,"gelation of solution ([1]; 1% and 0.1% solutions, HCl and Ca2+ addition)",globular micelle diameter (TEM) ([1]; bulk gels),nanofiber diameter (TEM) ([1]; bulk gels),"cell adhesion and spreading on nanofiber-coated glass slides ([2]; MC3T3-E1, 10,000 cells/coverslip, iodine cross-linked nanofibers)","osteoblastic differentiation, mineral by Von Kossa staining ([2]; MC3T3-E1, 17 days of culture)","cell layer on self assembled peptide amphiphile coated glass ([2]; MC3T3-E1, after 12 days (FIG. 4B legend))",result of coassembly [3]
"C16H31O-CCCCGGGSS(P)DS(P)D (Palmitoyl-CCCCGGGS[pS]D[pS]D; not fully specified (C-terminus); cysteine pairing not given here) [SEQ ID NO 1, peptide amphiphile: alkyl tail C16H31O, structural peptide CCCCGGG, functional peptide SS*DS*D]",found to gel,10-15 nm,5-10 nm,adhering and spreading,producing significant mineral,confluent layer,–
SEQ ID NO:25: peptide amphiphiles having an SSDSD peptide sequence; negatively charged; possibly the SEQ ID NO:1 amphiphile (also: alkyl tail),–,–,–,–,–,–,self-supporting PA nanofiber gel
